Source: patent US9266964
Like-named read-outs stand apart in the source and are kept apart here.

Assays:
human plasma kallikrein [1] = biological target: T1, human plasma kallikrein (human, UniProt P03952 20-390; P03952 391-638); assay: cell-based or functional assay
human plasma kallikrein [2] = biological target: T1, human plasma kallikrein; assay: Ki,app, inhibition of human pKal enzyme activity
human plasma kallikrein [3] = biological target: T1, human plasma kallikrein; assay: Ki,app, inhibition of human pKal enzyme activity; remark: listed apart in the source
human plasma kallikrein [4] = biological target: T1, human plasma kallikrein; assay: cell-based or functional assay; remark: listed apart in the source

T1 sequence (P03952 20-390, chain 1 of 2): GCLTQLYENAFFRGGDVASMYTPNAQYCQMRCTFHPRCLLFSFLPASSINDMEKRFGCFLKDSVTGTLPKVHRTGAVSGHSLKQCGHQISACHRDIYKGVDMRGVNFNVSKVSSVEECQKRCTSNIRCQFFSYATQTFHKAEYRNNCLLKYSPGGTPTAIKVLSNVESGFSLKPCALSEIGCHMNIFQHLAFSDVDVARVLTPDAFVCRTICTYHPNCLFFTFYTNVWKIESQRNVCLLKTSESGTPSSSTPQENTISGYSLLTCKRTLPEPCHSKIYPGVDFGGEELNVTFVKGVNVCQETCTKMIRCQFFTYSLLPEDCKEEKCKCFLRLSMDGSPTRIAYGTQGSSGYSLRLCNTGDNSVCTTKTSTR
T1 sequence (P03952 391-638, chain 2 of 2): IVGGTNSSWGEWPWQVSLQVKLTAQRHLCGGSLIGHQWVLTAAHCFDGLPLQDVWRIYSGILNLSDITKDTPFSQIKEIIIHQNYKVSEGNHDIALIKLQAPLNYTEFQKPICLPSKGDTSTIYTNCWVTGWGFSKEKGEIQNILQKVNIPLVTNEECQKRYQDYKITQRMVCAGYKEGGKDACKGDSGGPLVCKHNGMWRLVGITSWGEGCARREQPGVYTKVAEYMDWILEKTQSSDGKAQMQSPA

| Binder | % inhibition at 10 nM (human plasma kallikrein [1]) [%] | Ki (human plasma kallikrein [2]) [nM] | Ki (human plasma kallikrein [3]) [nM] | % inhibition at 10 nM (human plasma kallikrein [4]) [%] |
| --- | --- | --- | --- | --- |
| M200-A10 (Fab, V domains shown, Tested as Fab; printed HC runs into CH1) VH: EVQLLESGGGLVQPGGSLRLSCAASGFTFSHYIMMWVRQAPGKGLEWVSGIYSSGGITVYADSVKGRFTISRDNSKNTLYLQMNSLRAEDTAVYYCAYRRTGVPRRDSFDIWGQGTMVTVSS VL: DIQMTQSPSTLSASVGDRVTITCRASQSISSWLAWYQQKPGKAPNLLIYKASTLESGVPSRFSGSGSGTEFTLTISSLQPDDFATYYCQQYNTYWTFGQGTKVEIK | 94.3 | 0.3 | – | – |
| M198-F09 (Fab, V domains shown, Tested as Fab; printed HC runs into CH1) VH: EVQLLESGGGLVQPGGSLRLSCAASGFTFSVYNMHWVRQAPGKGLEWVSSIYPSGGMTYYADSVKGRFTISRDNSKNTLYLQMNSLRAEDTAVYYCAYRRTGIPRRDAFDIWGQGTMVTVSS VL: DIQMTQSPSTLSASVGDRVTITCRASQSISSWLAWYQQKPGKAPNLLIYKASTLESGVPSRFSGSGSGTEFTLTISSLQPDDFATYYCQQYNTYWTFGQGTKVEIK | 96.9 | 0.2 | – | – |
| M196-D12 (Fab, V domains shown, Tested as Fab; printed HC runs into CH1) VH: EVQLLESGGGLVQPGGSLRLSCAASGFTFSRYSMRWVRQAPGKGLEWVSVIYPSGGQTYYADSVKGRFTISRDNSKNTLYLQMNSLRAEDTAVYYCAYRRTGIPRRDAFDIWGQGTMVTVSS VL: DIQMTQSPSTLSASVGDRVTITCRASQSISSWLAWYQQKPGKAPNLLIYKASTLESGVPSRFSGSGSGTEFTLTISSLQPDDFATYYCQQYNTYWTFGQGTKVEIK | 94.1 | 0.2 | – | – |
| M198-A06 (Fab, V domains shown, Tested as Fab; printed HC runs into CH1) VH: EVQLLESGGGLVQPGGSLRLSCAASGFTFSIYSMHWVRQAPGKGLEWVSSIYSSGGPTKYADSVKGRFTISRDNSKNTLYLQMNSLRAEDTAVYYCAYRRTGIPRRDAFDIWGQGTMVTVSS VL: DIQMTQSPSTLSASVGDRVTITCRASQSISSWLAWYQQKPGKAPNLLIYKASTLESGVPSRFSGSGSGTEFTLTISSLQPDDFATYYCQQYNTYWTFGQGTKVEIK | 96.1 | 0.4 | – | – |
| M197-A09 (Fab, V domains shown, Tested as Fab; printed HC runs into CH1) VH: EVQLLESGGGLVQPGGSLRLSCAASGFTFSVYNMHWVRQAPGKGLEWVSSIYPSGGMTTYADSVKGRFTISRDNSKNTLYLQMNSLRAEDTAVYYCAYRRTGIPRRDAFDIWGQGTMVTVSS VL: DIQMTQSPSTLSASVGDRVTITCRASQSISSWLAWYQQKPGKAPNLLIYKASTLESGVPSRFSGSGSGTEFTLTISSLQPDDFATYYCQQYNTYWTFGQGTKVEIK | 94.9 | 0.6 | – | – |
| M196-C06 (Fab, V domains shown, Tested as Fab; printed HC runs into CH1) VH: EVQLLESGGGLVQPGGSLRLSCAASGFTFSIYSMHWVRQAPGKGLEWVSSIYPSRGMTWYADSVKGRFTISRDNSKNTLYLQMNSLRAEDTAVYYCAYRRTGIPRRDAFDIWGQGTMVTVSS VL: DIQMTQSPSTLSASVGDRVTITCRASQSISSWLAWYQQKPGKAPNLLIYKASTLESGVPSRFSGSGSGTEFTLTISSLQPDDFATYYCQQYNTYWTFGQGTKVEIK | 97.2 | 0.1 | – | – |
| M198-D12 (Fab, V domains shown, Tested as Fab; printed HC runs into CH1) VH: EVQLLESGGGLVQPGGSLRLSCAASGFTFSLYVMYWVRQAPGKGLEWVSYIVPSGGPTAYADSVKGRFTISRDNSKNTLYLQMNSLRAEDTAVYYCAYRRTGIPRRDAFDIWGQGTMVTVSS VL: DIQMTQSPSTLSASVGDRVTITCRASQSISSWLAWYQQKPGKAPNLLIYKASTLESGVPSRFSGSGSGTEFTLTISSLQPDDFATYYCQQYNTYWTFGQGTKVEIK | 63.5 | 0.7 | – | – |
| M208-F04 (Fab, V domains shown, Tested as Fab; printed HC runs into CH1) VH: EVQLLESGGGLVQPGGSLRLSCAASGFTFSHYLMTWVRQAPGKGLEWVSYISPSGGHTIYADSVKGRFTISRDNSKNTLYLQMNSLRAEDTAVYYCARVARGIAARSRTSFFDYWGQGTLVTVSS VL: DIQMTQSPGTLSLSPGERATLSCRTSQFVNSNYLAWYQQTPGQAPRLLIYGASSRATGIPDRFSGTGYGTDFTLTISRLEPEDYGTYYCQQSSRTPWTFGQGTRVEIK | – | – | 0.2 | 95.4 |
| M208-H02 (Fab, V domains shown, Tested as Fab; printed HC runs into CH1) VH: EVQLLESGGGLVQPGGSLRLSCAASGFTFSHYLMTWVRQAPGKGLEWVSYISPSGGHTIYADSVKGRFTISRDNSKNTLYLQMNSLRAEDTAVYYCARVARGIASRSRTRYCDYWGQGTLVTVSS VL: DIQMTQSPGTLSLSPGERATLSCRTSQFVNSNYLAWYQQTPGQAPRLLIYGASSRATGIPDRFSGTGYGTDFTLTISRLEPEDYGTYYCQQSSRTPWTFGQGTRVEIK | – | – | 0.2 | 94.4 |
| M209-B09 (Fab, V domains shown, Tested as Fab; printed HC runs into CH1; amber q written Q) VH: EVQLLESGGGLVQPGGSLRLSCAASGFTFSHYLMTWVRQAPGKGLEWVSYISPSGGHTIYADSVKGRFTISRDNSKNTLYLQMNSLRAEDTAVYYCARVAQGIVARSRTSYLHQWGQGTLVTVSS VL: DIQMTQSPGTLSLSPGERATLSCRTSQFVNSNYLAWYQQTPGQAPRLLIYGASSRATGIPDRFSGTGYGTDFTLTISRLEPEDYGTYYCQQSSRTPWTFGQGTRVEIK | – | – | 0.2 | 93.5 |
| M209-E02 (Fab, V domains shown, Tested as Fab; printed HC runs into CH1; amber q written Q) VH: EVQLLESGGGLVQPGGSLRLSCAASGFTFSHYLMTWVRQAPGKGLEWVSYISPSGGHTIYADSVKGRFTISRDNSKNTLYLQMNSLRAEDTAVYYCARVARGIAARSRTILLDQWGQGTLVTVSS VL: DIQMTQSPGTLSLSPGERATLSCRTSQFVNSNYLAWYQQTPGQAPRLLIYGASSRATGIPDRFSGTGYGTDFTLTISRLEPEDYGTYYCQQSSRTPWTFGQGTRVEIK | – | – | 0.3 | 92.4 |
| M209-C11 (Fab, V domains shown, Tested as Fab; printed HC runs into CH1; amber q written Q) VH: EVQLLESGGGLVQPGGSLRLSCAASGFTFSHYLMTWVRQAPGKGLEWVSYISPSGGHTIYADSVKGRFTISRDNSKNTLYLQMNSLRAEDTAVYYCAMVGQGIRGRSRTSYFAQWGQGTLVTVSS VL: DIQMTQSPGTLSLSPGERATLSCRTSQFVNSNYLAWYQQTPGQAPRLLIYGASSRATGIPDRFSGTGYGTDFTLTISRLEPEDYGTYYCQQSSRTPWTFGQGTRVEIK | – | – | 0.14 | 96.2 |
| M210-B02 (Fab, V domains shown, Tested as Fab; printed HC runs into CH1; amber q written Q) VH: EVQLLESGGGLVQPGGSLRLSCAASGFTFSHYLMTWVRQAPGKGLEWVSYISPSGGHTIYADSVKGRFTISRDNSKNTLYLQMNSLRAEDTAVYYCASVARGIAARSRTSYFNQWGQGTLVTVSS VL: DIQMTQSPGTLSLSPGERATLSCRTSQFVNSNYLAWYQQTPGQAPRLLIYGASSRATGIPDRFSGTGYGTDFTLTISRLEPEDYGTYYCQQSSRTPWTFGQGTRVEIK | – | – | 0.2 | 90.9 |
| M208-G03 (Fab, V domains shown, Tested as Fab; printed HC runs into CH1) VH: EVQLLESGGGLVQPGGSLRLSCAASGFTFSHYLMTWVRQAPGKGLEWVSYISPSGGHTIYADSVKGRFTISRDNSKNTLYLQMNSLRAEDTAVYYCARVARGIAARSRTSYLDYWGQGTLVTVSS VL: DIQMTQSPGTLSLSPGERATLSCRTSQFVNSNYLAWYQQTPGQAPRLLIYGASSRATGIPDRFSGTGYGTDFTLTISRLEPEDYGTYYCQQSSRTPWTFGQGTRVEIK | – | – | 0.3 | 93.4 |
| M210-H06 (Fab, V domains shown, Tested as Fab; printed HC runs into CH1) VH: EVQLLESGGGLVQPGGSLRLSCAASGFTFSHYLMTWVRQAPGKGLEWVSYISPSGGHTIYADSVKGRFTISRDNSKNTLYLQMNSLRAEDTAVYYCARVARGIAARSRTRYFDYWGQGTLVTVSS VL: DIQMTQSPGTLSLSPGERATLSCRTSQFVNSNYLAWYQQTPGQAPRLLIYGASSRATGIPDRFSGTGYGTDFTLTISRLEPEDYGTYYCQQSSRTPWTFGQGTRVEIK | – | – | 0.2 | 93.8 |
| M210-C12 (Fab, V domains shown, Tested as Fab; printed HC runs into CH1; amber q written Q) VH: EVQLLESGGGLVQPGGSLRLSCAASGFTFSHYLMTWVRQAPGKGLEWVSYISPSGGHTIYADSVKGRFTISRDNSKNTLYLQMNSLRAEDTAVYYCARVAQGIAARSRTSSVDQWGQGTLVTVSS VL: DIQMTQSPGTLSLSPGERATLSCRTSQFVNSNYLAWYQQTPGQAPRLLIYGASSRATGIPDRFSGTGYGTDFTLTISRLEPEDYGTYYCQQSSRTPWTFGQGTRVEIK | – | – | 0.16 | 95.6 |
| M210-H07 (Fab, V domains shown, Tested as Fab; printed HC runs into CH1; amber q written Q) VH: EVQLLESGGGLVQPGGSLRLSCAASGFTFSHYLMTWVRQAPGKGLEWVSYISPSGGHTIYADSVKGRFTISRDNSKNTLYLQMNSLRAEDTAVYYCARVARGIAARSRTRYFDQWGQGTLVTVSS VL: DIQMTQSPGTLSLSPGERATLSCRTSQFVNSNYLAWYQQTPGQAPRLLIYGASSRATGIPDRFSGTGYGTDFTLTISRLEPEDYGTYYCQQSSRTPWTFGQGTRVEIK | – | – | 0.4 | 92.8 |
| M209-F04 (Fab, V domains shown, Tested as Fab; printed HC runs into CH1; amber q written Q; WSQGTL as printed) VH: EVQLLESGGGLVQPGGSLRLSCAASGFTFSHYLMTWVRQAPGKGLEWVSYISPSGGHTIYADSVKGRFTISRDNSKNTLYLQMNSLRAEDTAVYYCARVARGIAARSRTSYLDQWSQGTLVTVSS VL: DIQMTQSPGTLSLSPGERATLSCRTSQFVNSNYLAWYQQTPGQAPRLLIYGASSRATGIPDRFSGTGYGTDFTLTISRLEPEDYGTYYCQQSSRTPWTFGQGTRVEIK | – | – | 0.09 | 97.6 |
| M210-G10 (Fab, V domains shown, Tested as Fab; printed HC runs into CH1) VH: EVQLLESGGGLVQPGGSLRLSCAASGFTFSHYLMTWVRQAPGKGLEWVSYISPSGGHTIYADSVKGRFTISRDNSKNTLYLQMNSLRAEDTAVYYCARVARGIAARSRTSYLDFWGQGTLVTVSS VL: DIQMTQSPGTLSLSPGERATLSCRTSQFVNSNYLAWYQQTPGQAPRLLIYGASSRATGIPDRFSGTGYGTDFTLTISRLEPEDYGTYYCQQSSRTPWTFGQGTRVEIK | – | – | 0.4 | 91.2 |
| M210-G04 (Fab, V domains shown, Tested as Fab; printed HC runs into CH1; amber q written Q) VH: EVQLLESGGGLVQPGGSLRLSCAASGFTFSHYLMTWVRQAPGKGLEWVSYISPSGGHTIYADSVKGRFTISRDNSKNTLYLQMNSLRAEDTAVYYCARVATGIVARSRTRYFDQWGQGTLVTVSS VL: DIQMTQSPGTLSLSPGERATLSCRTSQFVNSNYLAWYQQTPGQAPRLLIYGASSRATGIPDRFSGTGYGTDFTLTISRLEPEDYGTYYCQQSSRTPWTFGQGTRVEIK | – | – | 0.3 | 94.2 |
